The Kd is the equilibrium constant for the complex coming apart. Higher therefore signals a looser complex.

This note sets out measurements from patent US20190016778A1 (Xencor, published 2019).

This experiment deals with T1, human CD8 (captured on Octet biosensor) (human, UniProt P01732 22-182).
T1 construct: also called recombinant human CD8a
The experiment is described as follows: method not given; Octet (BLI) is the method of this example. (In general: BLI is a label-free optical method that tracks binding on a fibre tip over time.)

B1: humanized OKT8 variant (H2L1) (antibody)
chain 1: QVQLVQSGAEVKKPGASVKVSCKASGFNIKDTYIHWVRQAPGKGLEWMGRIDPANDNTLYASKFQGRVTITADTSINTAYMELSRLRSDDTAVYYCGRGYGYYVFDHWGQGTTVTVSSASTKGPSVFPLAPSSKSTSGGTAALGCLVKDYFPEPVTVSWNSGALTSGVHTFPAVLQSSGLYSLSSVVTVPSSSLGTQTYICNVNHKPSNTKVDKKVEPKSCDKTHTCPPCPAPPVAGPSVFLFPPKPKDTLMISRTPEVTCVVVDVKHEDPEVKFNWYVDGVEVHNAKTKPREEQYNSTYRVVSVLTVLHQDWLNGKEYKCKVSNKALPAPIEKTISKAKGQPREPQVYTLPPSREQMTKNQVKLTCLVKGFYPSDIAVEWESNGQPENNYKTTPPVLDSDGSFFLYSKLTVDKSRWQQGNVFSCSVMHEALHNHYTQKSLSLSPGK
chain 2: DIKMTQSPSSLSASVGDRVTITCRTSRSISQYLAWYQEKPGKTNKLLIYSGSTLQSGIPSRFSGSGSGTDFTLTISSLQPEDFATYYCQQHNENPLTFGAGTKLEIKRTVAAPSVFIFPPSDEQLKSGTASVVCLLNNFYPREAKVQWKVDNALQSGNSQESVTEQDSKDSTYSLSSTLTLSKADYEKHKVYACEVTHQGLSSPVTKSFNRGEC
chain 3: EPKSSDKTHTCPPCPAPPVAGPSVFLFPPKPKDTLMISRTPEVTCVVVDVKHEDPEVKFNWYVDGVEVHNAKTKPREEEYNSTYRVVSVLTVLHQDWLNGKEYKCKVSNKALPAPIEKTISKAKGQPREPQVYTLPPSREEMTKNQVSLTCDVSGFYPSDIAVEWESDGQPENNYKTTPPVLDSDGSFFLYSKLTVDKSRWEQGDVFSCSVMHEALHNHYTQKSLSLSPGK
Take B1: the Kd worked out at 12 nM.
